Square brackets hold non-standard residues; d marks the D form. Ends that are not written are not given here. pS = N[C@@H](COP(=O)(O)O)C(=O)O
Target: GST-MDC1-BRCT
Test: SPR

Kd	Binder
893 nM	AKLRFE[pS]QEMKG [MMSET phosphopeptide containing pS102]
287 nM	KKATQA[pS]QEY [γH2AX peptide]
